The results in this text go back to patent KR20160093502A (dated 2016).

The assay concerns the target T1, EPRS (glutamyl-prolyl tRNA synthetase), human 세포에서 원래 발현된 EPRS (Hela cell lysate) (human, UniProt P07814 1-1512).
T1 construct: Endogenous protein in 50 ug HeLa lysate, denatured on a western blot; also called endogenous EPRS in HeLa cell lysate
Kind of assay: western blot on HeLa cell lysate (clones from panning on EPRS WHEP domain antigen).

T1 sequence (P07814 whole entry): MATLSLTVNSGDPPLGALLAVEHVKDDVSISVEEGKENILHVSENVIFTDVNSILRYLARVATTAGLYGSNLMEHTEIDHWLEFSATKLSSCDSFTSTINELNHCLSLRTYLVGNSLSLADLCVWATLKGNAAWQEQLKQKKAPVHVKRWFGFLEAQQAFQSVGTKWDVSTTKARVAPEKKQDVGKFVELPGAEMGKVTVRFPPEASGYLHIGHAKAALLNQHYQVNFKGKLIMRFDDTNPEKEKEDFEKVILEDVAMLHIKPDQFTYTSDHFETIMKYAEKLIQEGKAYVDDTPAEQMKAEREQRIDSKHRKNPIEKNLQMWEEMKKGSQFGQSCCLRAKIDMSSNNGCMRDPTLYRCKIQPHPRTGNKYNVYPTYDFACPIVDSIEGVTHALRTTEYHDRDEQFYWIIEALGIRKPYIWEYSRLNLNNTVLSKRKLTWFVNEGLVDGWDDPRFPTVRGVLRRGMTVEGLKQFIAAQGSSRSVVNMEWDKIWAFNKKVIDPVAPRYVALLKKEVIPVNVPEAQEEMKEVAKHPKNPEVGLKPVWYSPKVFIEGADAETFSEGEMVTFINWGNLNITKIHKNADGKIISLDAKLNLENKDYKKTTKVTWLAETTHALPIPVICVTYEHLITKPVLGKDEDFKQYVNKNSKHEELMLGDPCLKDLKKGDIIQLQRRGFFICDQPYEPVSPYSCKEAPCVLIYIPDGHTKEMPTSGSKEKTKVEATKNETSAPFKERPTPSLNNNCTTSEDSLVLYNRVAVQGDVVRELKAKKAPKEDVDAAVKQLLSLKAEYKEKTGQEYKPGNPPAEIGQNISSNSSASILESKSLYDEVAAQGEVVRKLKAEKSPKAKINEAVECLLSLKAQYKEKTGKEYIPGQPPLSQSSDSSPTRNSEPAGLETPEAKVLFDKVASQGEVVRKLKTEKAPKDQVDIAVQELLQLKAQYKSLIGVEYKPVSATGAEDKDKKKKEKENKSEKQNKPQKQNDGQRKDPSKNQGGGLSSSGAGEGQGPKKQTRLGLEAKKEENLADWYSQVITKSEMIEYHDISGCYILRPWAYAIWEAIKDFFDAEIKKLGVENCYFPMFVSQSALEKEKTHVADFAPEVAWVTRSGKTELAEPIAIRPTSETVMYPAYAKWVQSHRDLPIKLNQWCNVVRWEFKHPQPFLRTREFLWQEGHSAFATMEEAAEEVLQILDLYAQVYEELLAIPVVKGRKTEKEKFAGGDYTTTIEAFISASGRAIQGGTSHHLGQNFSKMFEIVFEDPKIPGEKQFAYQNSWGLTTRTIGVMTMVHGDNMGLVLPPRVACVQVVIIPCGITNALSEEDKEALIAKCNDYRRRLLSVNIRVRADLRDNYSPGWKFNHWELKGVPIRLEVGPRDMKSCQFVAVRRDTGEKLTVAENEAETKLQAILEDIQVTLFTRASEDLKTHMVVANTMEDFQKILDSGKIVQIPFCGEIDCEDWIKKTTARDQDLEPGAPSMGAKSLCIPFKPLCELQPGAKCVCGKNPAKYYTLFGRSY

B1: SEQ ID NO 42 (scFv)
scFv: EVQLLESGGGLVQPGGSLRLSCAVSGFTFSSYYMSWVRQAPGKGLEWVSLISPGSGSIYYADSVKGRFTISRDNSKNTLYLQMNSLRAEDTAVYYCARTGWLFDYWGQGTLVTVNSGGGGSGGGGSGGGGSQSVLTQPPSASGTPGQRVTISCSGSSSNIGNNAVNWYQQLPGTAPKLLIYSNSHRPSGVPDRFSGSKSGTSASLAISGLRSEDEADYYCGSWDASLNGYVFGGGTKLTVL
With B1, the binding result is given as “binds”.

B2: SEQ ID NO 28 (scFv)
scFv: EVQLLESGGGLVQPGGSLRLSCAASGFTFSNYAMSWVRQAPGKGLEWVSGIYHGGGNKYYADSVKGRFTISRDNSKNTLYLQMNSLRAEDTAVYYCARTRTLFDYWGQGTLVTVSSGGGGSGGGGSGGGGSQSVLTQPPSASGTPGQRVTISCTGSSSNIGNNAVSWYQQLPGTAPKLLIYANSHRPSGVPDRFSGSKSGTSASLAISGLRSEDEADYYCGTWDASLSGYVFGGGTKLTVL
In the case of B2, the binding result is given as “binds”.
